Where two headings read alike, the source gives them in different places. Each block holds one substance with its values, some of them ahead of it.
Columns and labels:
[1] = molecular target: human MSLN on OVCAR3 tumor cells (human) (UniProt Q13421); test: FACS, OVCAR3 cells
[2] = molecular target: human MSLN on OVCAR3 tumor cells (human) (UniProt Q13421); test: FACS, OVCAR3 cells; remark: listed apart in the source
[3] = molecular target: human MSLN on OVCAR3 tumor cells (human) (UniProt Q13421); test: FACS, OVCAR3 cells; remark: listed apart in the source
[4] = molecular target: human MSLN on OVCAR3 tumor cells (human) (UniProt Q13421); test: FACS, OVCAR3 cells; remark: listed apart in the source
[5] = molecular target: human MSLN-R3 on HEK293T-hMSLN-R3 recombinant cells (human) (UniProt Q13421); test: FACS, HEK293T-hMSLN-R3 cells
human MSLN-R3 on HEK293T-hMSLN-R3 recombinant cells (human), sequence (Q13421 495-614): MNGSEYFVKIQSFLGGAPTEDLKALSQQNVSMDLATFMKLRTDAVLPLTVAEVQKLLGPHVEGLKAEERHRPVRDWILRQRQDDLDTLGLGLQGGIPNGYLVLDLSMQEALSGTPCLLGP

[6] = molecular target: human MSLN-R3 on HEK293T-hMSLN-R3 recombinant cells (human) (UniProt Q13421); test: FACS, HEK293T-hMSLN-R3 cells; remark: listed apart in the source
[7] = molecular target: human MSLN-R3 on HEK293T-hMSLN-R3 recombinant cells (human) (UniProt Q13421); test: FACS, HEK293T-hMSLN-R3 cells; remark: listed apart in the source
[8] = molecular target: human MSLN-R3 on HEK293T-hMSLN-R3 recombinant cells (human) (UniProt Q13421); test: FACS, HEK293T-hMSLN-R3 cells; remark: listed apart in the source
[9] = molecular target: monkey MSLN on HEK293T-monkey MSLN recombinant cells (monkey); test: FACS, HEK293T-monkey MSLN cells
[10] = molecular target: monkey MSLN on HEK293T-monkey MSLN recombinant cells (monkey); test: FACS, HEK293T-monkey MSLN cells; remark: listed apart in the source
[11] = molecular target: monkey MSLN on HEK293T-monkey MSLN recombinant cells (monkey); test: FACS, HEK293T-monkey MSLN cells; remark: listed apart in the source
[12] = molecular target: monkey MSLN on HEK293T-monkey MSLN recombinant cells (monkey); test: FACS, HEK293T-monkey MSLN cells; remark: listed apart in the source
[13] = molecular target: human MSLN-hFc protein (Acro, Cat. No. MSN-H5253) (human) (UniProt Q13421); test: ELISA on coated antigen, antibody 1 nM
human MSLN-hFc protein (Acro, Cat. No. MSN-H5253) (human), sequence (Q13421 other isoform, or with tags, fused parts or gaps limits assumed): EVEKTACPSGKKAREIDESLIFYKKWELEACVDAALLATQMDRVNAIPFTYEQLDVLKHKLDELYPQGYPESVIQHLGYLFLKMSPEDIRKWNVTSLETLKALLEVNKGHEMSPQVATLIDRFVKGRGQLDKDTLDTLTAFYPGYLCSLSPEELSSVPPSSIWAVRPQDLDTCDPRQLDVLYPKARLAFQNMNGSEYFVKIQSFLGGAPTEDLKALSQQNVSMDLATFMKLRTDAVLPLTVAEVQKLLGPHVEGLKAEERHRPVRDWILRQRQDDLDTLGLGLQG

[14] = molecular target: human MSLN-hFc protein (Acro, Cat. No. MSN-H5253) (human) (UniProt Q13421); test: ELISA on coated antigen, antibody 1 nM; remark: listed apart in the source
[15] = molecular target: human MSLN-hFc protein (Acro, Cat. No. MSN-H5253) (human) (UniProt Q13421); test: ELISA on coated antigen, antibody 10 nM
[16] = molecular target: human MSLN-hFc protein (Acro, Cat. No. MSN-H5253) (human) (UniProt Q13421); test: ELISA on coated antigen, antibody 0.1 nM
[17] = molecular target: human MSLN-hFc protein (Acro, Cat. No. MSN-H5253) (human) (UniProt Q13421); test: ELISA on coated antigen, antibody 100 nM
[18] = molecular target: human MSLN-hFc protein (Acro, Cat. No. MSN-H5253) (human) (UniProt Q13421); test: ELISA on coated antigen, antibody 0.1 nM; remark: listed apart in the source
[19] = molecular target: human MSLN-hFc protein (Acro, Cat. No. MSN-H5253) (human) (UniProt Q13421); test: ELISA on coated antigen, antibody 0.01 nM
[20] = molecular target: human MSLN-hFc protein (Acro, Cat. No. MSN-H5253) (human) (UniProt Q13421); test: ELISA on coated antigen, antibody 0.001 nM
[21] = molecular target: human MSLN-hFc protein (Acro, Cat. No. MSN-H5253) (human) (UniProt Q13421); test: ELISA on coated antigen, antibody 0.001 nM; remark: listed apart in the source
[22] = molecular target: human MSLN-hFc protein (Acro, Cat. No. MSN-H5253) (human) (UniProt Q13421); test: ELISA on coated antigen, antibody 0.0001 nM
[23] = molecular target: human MSLN-hFc protein (Acro, Cat. No. MSN-H5253) (human) (UniProt Q13421); test: ELISA, coated human MSLN-hFc, antibody 1 nM
[24] = molecular target: human MSLN-hFc protein (Acro, Cat. No. MSN-H5253) (human) (UniProt Q13421); test: ELISA, coated human MSLN-hFc, antibody 1 nM; remark: listed apart in the source
[25] = molecular target: human MSLN-hFc protein (Acro, Cat. No. MSN-H5253) (human) (UniProt Q13421); test: ELISA, coated human MSLN-hFc, antibody 10 nM
[26] = molecular target: human MSLN-hFc protein (Acro, Cat. No. MSN-H5253) (human) (UniProt Q13421); test: ELISA, coated human MSLN-hFc, antibody 10 nM; remark: listed apart in the source
[27] = molecular target: human MSLN-hFc protein (Acro, Cat. No. MSN-H5253) (human) (UniProt Q13421); test: ELISA, coated human MSLN-hFc, antibody 0.1 nM
[28] = molecular target: human MSLN-hFc protein (Acro, Cat. No. MSN-H5253) (human) (UniProt Q13421); test: ELISA, coated human MSLN-hFc, antibody 100 nM
[29] = molecular target: human MSLN-hFc protein (Acro, Cat. No. MSN-H5253) (human) (UniProt Q13421); test: ELISA, coated human MSLN-hFc, antibody 0.1 nM; remark: listed apart in the source
[30] = molecular target: human MSLN-hFc protein (Acro, Cat. No. MSN-H5253) (human) (UniProt Q13421); test: ELISA, coated human MSLN-hFc, antibody 100 nM; remark: listed apart in the source
[31] = molecular target: human MSLN-hFc protein (Acro, Cat. No. MSN-H5253) (human) (UniProt Q13421); test: ELISA, coated human MSLN-hFc, antibody 0.01 nM
[32] = molecular target: human MSLN-hFc protein (Acro, Cat. No. MSN-H5253) (human) (UniProt Q13421); test: ELISA, coated human MSLN-hFc, antibody 0.01 nM; remark: listed apart in the source
[33] = molecular target: human MSLN-hFc protein (Acro, Cat. No. MSN-H5253) (human) (UniProt Q13421); test: ELISA, coated human MSLN-hFc, antibody 0.001 nM
[34] = molecular target: human MSLN-hFc protein (Acro, Cat. No. MSN-H5253) (human) (UniProt Q13421); test: ELISA, coated human MSLN-hFc, antibody 0.001 nM; remark: listed apart in the source
[35] = molecular target: human MSLN-hFc protein (Acro, Cat. No. MSN-H5253) (human) (UniProt Q13421); test: ELISA, coated human MSLN-hFc, antibody 0.0001 nM
[36] = molecular target: monkey MSLN full-length protein expressed on HEK293T cells (HEK293T-monkey MSLN) (monkey); test: FACS on HEK293T-monkey MSLN cells
[37] = molecular target: monkey MSLN full-length protein (NCBI: XP_028696439.1) on HEK293T cells (monkey); test: FACS on HEK293T-monkey MSLN cells; antibody […]
[38] = molecular target: monkey MSLN full-length protein (NCBI: XP_028696439.1) on HEK293T cells (monkey); test: FACS on HEK293T-monkey MSLN cells; antibody 4 nM
[39] = molecular target: monkey MSLN full-length protein (NCBI: XP_028696439.1) on HEK293T cells (monkey); test: FACS on HEK293T-monkey MSLN cells; antibody 20 nM
[40] = molecular target: monkey MSLN full-length protein (NCBI: XP_028696439.1) on HEK293T cells (monkey); test: FACS on HEK293T-monkey MSLN cells; antibody 0.8 nM
[41] = molecular target: monkey MSLN full-length protein (NCBI: XP_028696439.1) on HEK293T cells (monkey); test: FACS on HEK293T-monkey MSLN cells; antibody 100 nM
[42] = molecular target: monkey MSLN full-length protein (NCBI: XP_028696439.1) on HEK293T cells (monkey); test: FACS on HEK293T-monkey MSLN cells; antibody 0.032 nM
[43] = molecular target: monkey MSLN full-length protein (NCBI: XP_028696439.1) on HEK293T cells (monkey); test: FACS on HEK293T-monkey MSLN cells; antibody 0.0064 nM
[44] = molecular target: monkey MSLN full-length protein (NCBI: XP_028696439.1) on HEK293T cells (monkey); test: FACS on HEK293T-monkey MSLN cells; antibody 0.00128 nM
[45] = molecular target: human MSLN-FL-his protein (human) (UniProt Q13421); test: ELISA, antibody 100 nM
human MSLN-FL-his protein (human), sequence (Q13421 other isoform, or with tags, fused parts or gaps): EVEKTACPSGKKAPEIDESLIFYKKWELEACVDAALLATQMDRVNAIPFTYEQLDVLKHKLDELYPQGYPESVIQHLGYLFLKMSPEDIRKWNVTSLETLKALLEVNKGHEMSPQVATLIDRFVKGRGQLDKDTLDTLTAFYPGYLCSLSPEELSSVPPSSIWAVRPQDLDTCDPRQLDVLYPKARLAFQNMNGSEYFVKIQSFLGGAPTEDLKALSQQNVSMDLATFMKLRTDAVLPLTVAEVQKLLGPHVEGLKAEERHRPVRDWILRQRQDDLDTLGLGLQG

[46] = molecular target: human MSLN-R3-3 polypeptide (human); test: ELISA, coated antigen, antibody 1 nM
[47] = molecular target: human MSLN-R3-3 polypeptide (human); test: ELISA, coated antigen, antibody 0.1 nM
[48] = molecular target: human MSLN-R3-3 polypeptide (human); test: ELISA, coated antigen, antibody 0.01 nM
[49] = molecular target: human MSLN-R3-3 polypeptide (human); test: ELISA, coated antigen, antibody 0.001 nM
[50] = molecular target: human MSLN-R3-3 polypeptide (human); test: ELISA, coated antigen, antibody 0.0001 nM
[51] = molecular target: human MSLN-R3-3 polypeptide (human); test: ELISA, coated antigen, no antibody (blank)
[52] = molecular target: human MSLN-R3-rFc protein (human) (UniProt Q13421); test: ELISA, antibody 1 nM
human MSLN-R3-rFc protein (human), sequence (Q13421 495-606): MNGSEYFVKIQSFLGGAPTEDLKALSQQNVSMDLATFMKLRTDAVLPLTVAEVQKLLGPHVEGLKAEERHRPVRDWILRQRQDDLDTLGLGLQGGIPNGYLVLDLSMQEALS

[53] = molecular target: human MSLN-R3-rFc protein (human) (UniProt Q13421); test: ELISA, antibody 4 nM
[54] = molecular target: human MSLN-R3-rFc protein (human) (UniProt Q13421); test: ELISA, antibody 20 nM
[55] = molecular target: human MSLN-R3-rFc protein (human) (UniProt Q13421); test: ELISA, antibody 100 nM
[56] = molecular target: human MSLN-R3-rFc protein (human) (UniProt Q13421); test: ELISA, antibody 0.0064 nM
[57] = molecular target: human MSLN-R3-rFc protein (human) (UniProt Q13421); test: ELISA, antibody 0.032 nM
[58] = molecular target: human MSLN-FL-his protein (human) (UniProt Q13421); test: ELISA, antibody 0.0001 nM
[59] = molecular target: human MSLN protein endogenously expressed on OVCAR3 tumor cells (human) (UniProt Q13421); test: FACS on OVCAR3 cells
human MSLN protein endogenously expressed on OVCAR3 tumor cells (human), sequence (Q13421 other isoform, or with tags, fused parts or gaps): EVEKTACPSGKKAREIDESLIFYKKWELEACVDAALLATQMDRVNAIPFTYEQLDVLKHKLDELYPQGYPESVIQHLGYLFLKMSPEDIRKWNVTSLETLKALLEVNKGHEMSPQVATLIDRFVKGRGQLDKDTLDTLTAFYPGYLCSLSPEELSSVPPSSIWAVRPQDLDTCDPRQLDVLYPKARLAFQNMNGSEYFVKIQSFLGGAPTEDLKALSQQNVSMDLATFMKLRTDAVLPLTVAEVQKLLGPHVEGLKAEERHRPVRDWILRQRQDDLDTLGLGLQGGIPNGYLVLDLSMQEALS

[60] = molecular target: human MSLN full-length protein (NCBI: AAH09272.1) expressed on HEK293T-hMSLN-B8 cells (human) (UniProt Q13421); test: FACS on HEK293T-hMSLN-B8 cells
human MSLN full-length protein (NCBI: AAH09272.1) expressed on HEK293T-hMSLN-B8 cells (human), sequence (Q13421 other isoform, or with tags, fused parts or gaps limits assumed): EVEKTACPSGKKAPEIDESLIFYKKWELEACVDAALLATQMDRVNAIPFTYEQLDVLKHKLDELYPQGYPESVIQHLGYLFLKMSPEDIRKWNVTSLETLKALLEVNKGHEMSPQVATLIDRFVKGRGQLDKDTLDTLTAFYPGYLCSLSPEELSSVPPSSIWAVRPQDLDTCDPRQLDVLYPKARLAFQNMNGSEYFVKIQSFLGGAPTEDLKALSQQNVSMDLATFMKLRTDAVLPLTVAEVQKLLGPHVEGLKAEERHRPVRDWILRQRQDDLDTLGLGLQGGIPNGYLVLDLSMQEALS

[61] = molecular target: human MSLN-R3 protein (Met487-Ser606 of NCBI AAH09272.1) expressed on HEK293T-hMSLN-R3 cells (human) (UniProt Q13421); test: FACS on HEK293T-hMSLN-R3 cells
human MSLN-R3 protein (Met487-Ser606 of NCBI AAH09272.1) expressed on HEK293T-hMSLN-R3 cells (human), sequence (Q13421 495-614): as the sequence (Q13421 495-614) above

[62] = molecular target: monkey MSLN full-length protein (NCBI: XP_028696439.1) expressed on HEK293T-monkey MSLN cells (monkey); test: FACS on HEK293T-monkey MSLN cells

Maximum MFI [1]: 336 MFI
Maximum MFI [2]: 209 MFI
Maximum MFI [3]: 469 MFI
Maximum MFI [4]: 454 MFI
Maximum MFI [5]: 439 MFI
Maximum MFI [6]: 92 MFI
Maximum MFI [7]: 304 MFI
Maximum MFI [8]: 156 MFI
Maximum MFI [9]: 279 MFI
Maximum MFI [10]: 104 MFI
Maximum MFI [11]: 231 MFI
Maximum MFI [12]: 172 MFI
OD450 [13]: 0.06 OD450
OD450 [14]: 0.07 OD450
OD450 [15]: 0.07 OD450
OD450 [16]: 0.13 OD450
OD450 [17]: 0.07 OD450
OD450 [18]: 0.06 OD450
OD450 [19]: 0.07 OD450
OD450 [20]: 0.11 OD450
OD450 [21]: 0.07 OD450
OD450 [22]: 0.06 OD450
Substance: Tab084 (NC) (scFv)

OD450 nm [23]: 0.05
OD450 nm [24]: 0.06
OD450 nm [25]: 0.05
OD450 nm [26]: 0.07
OD450 nm [27]: 0.05
OD450 nm [28]: 0.05
OD450 nm [29]: 0.07
OD450 nm [30]: 0.07
OD450 nm [31]: 0.05
OD450 nm [32]: 0.06
OD450 nm [33]: 0.05
OD450 nm [34]: 0.06
OD450 nm [35]: 0.05
Substance: Tab084 (NC), m971 VH-(G4S)3-VL-his (scFv)

EC50 [36]: < 0.5 nM
Maximum mean fluorescence intensity [36]: 12400
FACS fluorescence intensity [37]: 313
FACS fluorescence intensity [38]: 2440
FACS fluorescence intensity [39]: 2660
FACS fluorescence intensity [40]: 860
FACS fluorescence intensity [41]: 3290
FACS fluorescence intensity [42]: 142
FACS fluorescence intensity [43]: 100
FACS fluorescence intensity [44]: 90
Substance: Tab106 (YP218, hIgG1) (antibody)

OD450 nm [45]: 0.16
FACS fluorescence intensity [37]: 83
FACS fluorescence intensity [38]: 86
FACS fluorescence intensity [39]: 85
FACS fluorescence intensity [40]: 87
FACS fluorescence intensity [41]: 87
FACS fluorescence intensity [42]: 106
FACS fluorescence intensity [43]: 85
FACS fluorescence intensity [44]: 93
Substance: Tab131 (m912, scFv-hIgG1 Fc) (Fc fusion)

OD450 [46]: 0.06
OD450 [47]: 0.06
OD450 [48]: 0.06
OD450 [49]: 0.06
OD450 [50]: 0.07
OD450 [51]: 0.07
Substance: anti-hel-hIgG1 (negative control antibody against hen egg lysozyme)

OD450 nm [52]: 0.11
OD450 nm [53]: 0.23
OD450 nm [54]: 0.86
OD450 nm [55]: 1.11
OD450 nm [56]: 0.16
Substance: anti-human MSLN antibody (purchased from Acro, Cat. No. MSN-M30)

OD450 nm [52]: 0.09
OD450 nm [53]: 0.15
OD450 nm [55]: 0.21
OD450 nm [57]: 0.11
OD450 nm [58]: 0.04
Substance: hIgG1 (human IgG1 control antibody)

Maximum mean fluorescence intensity [59]: 122
Maximum mean fluorescence intensity [60]: 267
Maximum mean fluorescence intensity [61]: 102
Maximum mean fluorescence intensity [62]: 102
Substance: hIgG1 negative control antibody (anti-hel-hIgG1, against hen egg lysozyme)

Reference: US20250250357A1
